Test results taken from PMC9871560, “Truncated-semaphorin3A is a potential regulatory molecule to restore immune homeostasis in immune-mediated diseases” (Frontiers in Pharmacology, 2022).

B1: Parental semaphorin3A (P-sema3A) (ligand, human, UniProt Q14563 21-771, looked up)
chain: NYQNGKNNVPRLKLSYKEMLESNNVITFNGLANSSSYHTFLLDEERSRLYVGAKDHIFSFDLVNIKDFQKIVWPVSYTRRDECKWAGKDILKECANFIKVLKAYNQTHLYACGTGAFHPICTYIEIGHHPEDNIFKLENSHFENGRGKSPYDPKLLTASLLIDGELYSGTAADFMGRDFAIFRTLGHHHPIRTEQHDSRWLNDPKFISAHLISESDNPEDDKVYFFFRENAIDGEHSGKATHARIGQICKNDFGGHRSLVNKWTTFLKARLICSVPGPNGIDTHFDELQDVFLMNFKDPKNPVVYGVFTTSSNIFKGSAVCMYSMSDVRRVFLGPYAHRDGPNYQWVPYQGRVPYPRPGTCPSKTFGGFDSTKDLPDDVITFARSHPAMYNPVFPMNNRPIVIKTDVNYQFTQIVVDRVDAEDGQYDVMFIGTDVGTVLKVVSIPKETWYDLEEVLLEEMTVFREPTAISAMELSTKQQQLYIGSTAGVAQLPLHRCDIYGKACAECCLARDPYCAWDGSACSRYFPTAKRRTRRQDIRNGDPLTHCSDLHHDNHHGHSPEERIIYGVENSSTFLECSPKSQRALVYWQFQRRNEERKEEIRVDDHIIRTDQGLLLRSLQQKDSGNYLCHAVEHGFIQTLLKVTLEVIDTEHLEELLHKDDDGDGSKTKEMSNSMTPSQKVWYRDFMQLINHPNLNTMDEFCEQVWKRDRKQRRQRPGHTPGNSNKWKHLQENKKGRNRRTHEFERAPRSV
notes: human parental semaphorin3A; Secreted into the medium; The preparation holds monomer (~95 kDa), dimer (~160 kDa) and ~70 kDa fragments from cleavage by furin; also called parental sema3A; original sema3A; source: HEK293, serum-free culture medium, purified (Ni-NTA agarose)
B2: Truncated-sema3A (T-sema3A) (domain or fragment, human, UniProt Q14563 21-516, looked up)
chain: NYQNGKNNVPRLKLSYKEMLESNNVITFNGLANSSSYHTFLLDEERSRLYVGAKDHIFSFDLVNIKDFQKIVWPVSYTRRDECKWAGKDILKECANFIKVLKAYNQTHLYACGTGAFHPICTYIEIGHHPEDNIFKLENSHFENGRGKSPYDPKLLTASLLIDGELYSGTAADFMGRDFAIFRTLGHHHPIRTEQHDSRWLNDPKFISAHLISESDNPEDDKVYFFFRENAIDGEHCGKATHARIGQICKNDFGGHRSLVNKWTTFLKARLICSVPGPNGIDTHFDELQDVFLMNFKDPKNPVVYGVFTTSSNIFKGSAVCMYSMSDVRRVFLGPYAHRDGPNYQWVPYQGRVPYPRPGTCPSKTFGGFDSTKDLPDDVITFARSHPAMYNPVFPMNNRPIVIKTDVNYQFTQIVVDRVDAEDGQYDVMFIGTDVGTVLKVVSIPKETWYDLEEVLLEEMTVFREPTAISAMELSTKQQQLYIGSTAGVAQLPLHR
notes: signal peptide in the construct; human semaphorin3A, amino acids 1-516 of the parental sema3A, with S257C to make an artificial disulfide dimerization site; Secreted into the medium; Without reducing agent it runs as a homodimer (~140 kDa double band) together with some monomer (~68 kDa); also called truncated semaphorin3A; source: HEK293 stably expressing (lentiviral vector NSPI), serum-free …

Tests used:
[1] = biological target: B1; assay: ELISA; homemade ELISA; 5 ug/mL purified CD72 coated on a MaxiSorp plate overnight at 4 C; 0-25 ug/mL purified P- or T-sema3A added for 3 h at 4 C; detected with polyclonal goat anti-sema3A and anti-goat HRP; Kd from the one site total binding equation (GraphPad Prism); conditions: both partners purified
[2] = biological target: B2; assay: as above; conditions: both partners purified
[3] = biological target: the molecule itself; assay: SDS-PAGE without reducing agent, immunoblot; purified proteins on SDS-PAGE with or without dithiothreitol, immunoblotted with polyclonal goat anti-human sema3A; monomer to disulfide-linked dimer

Row | Binder | Kd [1] [nM] | Kd [2] [nM] | stoichiometry N [3]
1 | CD72 recombinant protein, extracellular part (amino acids 117-359) (domain or fragment, UniProt P21854 117-359, looked up, CD72, extracellular part, amino acids 117-359; source: HEK293 stably expressing (lentiviral vector NSPI), purified (Ni-NTA agarose)) RYLQVSQQLQQTNRVLEVTNSSLRQQLRLKITQLGQSAEDLQGSRRELAQSQEALQVEQRAHQAAEGQLQACQADRQKTKETLQSEEQQRRALEQKLSNMENRLKPFFTCGSADTCCPSGWIMHQKSCFYISLTSKNWQESQKQCETLSSKLATFSEIYPQSHSYYFLNSLLPNGGSGNSYWTGLSSNKDWKLTDDTQRTRTYAQSSKCNKVHKTWSWWTLESESCRSSLPYICEMTAFRFPD | ~7.3 | ~4.85 | –
2 | B1 | – | – | 2
3 | B2 | – | – | 2
